Measurements as given in patent US20220235134A1 (SINGLE CELL TECHNOLOGY, published 2022).

T1: B7-H3, native protein on the cell surface of A498 and SK-MES-1 cells (UniProt Q5ZPR3 29-534, limits assumed)
T1 construct: whole, on cells; The cell line is named under assay for each row
T1 sequence (looked up): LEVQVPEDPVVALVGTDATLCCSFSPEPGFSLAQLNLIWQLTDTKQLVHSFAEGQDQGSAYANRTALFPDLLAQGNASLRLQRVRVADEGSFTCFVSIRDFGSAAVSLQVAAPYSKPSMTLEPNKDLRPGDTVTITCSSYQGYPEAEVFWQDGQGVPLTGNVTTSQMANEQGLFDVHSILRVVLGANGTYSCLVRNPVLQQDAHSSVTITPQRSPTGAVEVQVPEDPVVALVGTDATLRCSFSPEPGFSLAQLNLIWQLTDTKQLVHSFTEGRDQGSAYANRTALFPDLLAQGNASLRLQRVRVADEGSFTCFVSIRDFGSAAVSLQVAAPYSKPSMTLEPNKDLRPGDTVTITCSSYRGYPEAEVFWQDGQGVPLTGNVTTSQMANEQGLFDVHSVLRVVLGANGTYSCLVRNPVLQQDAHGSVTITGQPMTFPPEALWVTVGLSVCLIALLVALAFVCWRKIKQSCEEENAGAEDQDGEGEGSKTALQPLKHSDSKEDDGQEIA

T2: Recombinant human B7-H3 (human, UniProt Q5ZPR3 29-466, limits assumed)
T2 construct: also called CD276; B7RP-2
T2 sequence: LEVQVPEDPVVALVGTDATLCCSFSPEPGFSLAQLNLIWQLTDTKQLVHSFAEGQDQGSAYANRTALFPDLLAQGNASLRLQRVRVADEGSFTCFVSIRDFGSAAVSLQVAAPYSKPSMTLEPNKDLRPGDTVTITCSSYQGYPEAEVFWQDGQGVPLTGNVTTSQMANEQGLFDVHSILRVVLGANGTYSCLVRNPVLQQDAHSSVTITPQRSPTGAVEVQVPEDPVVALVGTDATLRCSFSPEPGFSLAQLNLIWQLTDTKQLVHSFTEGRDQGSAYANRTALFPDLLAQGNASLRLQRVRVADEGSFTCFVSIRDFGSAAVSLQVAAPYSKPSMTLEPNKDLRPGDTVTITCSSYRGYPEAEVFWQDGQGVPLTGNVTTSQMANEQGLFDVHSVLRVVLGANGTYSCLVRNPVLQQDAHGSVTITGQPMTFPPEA


Columns and labels:
[1] = target: T1, B7-H3, native protein on the cell …; experiment: flow cytometry (FACS) on SK-MES-1 cells
Experimental: (§1) The recombinantly expressed antibodies were used to assess binding activity to B7-H3 by conventional ELISA according to the known art. Recombinant human B7-H3 and cyno B7-H3 were coated onto ELISA plates to detect binding at serially diluted concentrations of the anti-B7-H3 antibody preparations. The binding affinity of select anti-B7-H3 antibodies were measured on a surface plasmon resonance (SPR) instrument, such as a Biacore T200™, against human B7-H3 (table 3) and cyno B7-H3 (table 4). Cell lines expressing B7-H3, A498 and SK-MES-1, were used to assess binding by anti-B7-H3 antibodies on the native protein on the cell surface by flow cytometry according to the known art. […] In addition, the antibody-dependent cellular cytotoxicity (ADCC) activity of select anti-B7-H3 antibodies were assessed using an engineered surrogate effector cell line, kit reagents, and a luminometer (Promega, Madison, Wis.) on A498 and SK-MES-1 as target cells in table 2 under the heading “ADCC (reporter) and FIGS. 1C and 1D. Finally, specificity of each of the antibodies examined thus far were assessed by interacting with proteins from the B7 family (human B7-1, B7-2, PD-L2, PD-L1, B7-H2, B7-H4, B7-H5, B7-H6, B7-H7) against B7-H3 using ELISA. The data were plotted for each antibody on FIGS. 3A through 3E.

[2] = target: T2, Recombinant human B7-H3; experiment: ELISA, recombinant human B7-H3 coated on plate
Experimental: as §1

[3] = target: Recombinant cyno B7-H3 (cyno); experiment: SPR (such as Biacore T200), against cyno B7-H3
Experimental: as §1

[4] = target: T1, B7-H3, native protein on the cell …; experiment: flow cytometry (FACS) on A498 cells
Experimental: as §1

[5] = target: T2, Recombinant human B7-H3; experiment: SPR (such as Biacore T200), against human B7-H3
Experimental: as §1

[6] = target: T1, B7-H3, native protein on the cell …; experiment: cell-based or functional assay
[7] = target: Recombinant cyno B7-H3 (cyno); experiment: ELISA, cyno B7-H3 coated on plate
Experimental: as §1

Binder | EC50 [1] [nM] | EC50 [2] [nM] | Kd [3] [nM] | koff [3] [s⁻¹] | kon [3] [M⁻¹ s⁻¹] | EC50 [4] [nM] | Kd [5] [nM] | koff [5] [s⁻¹] | kon [5] [M⁻¹ s⁻¹] | ADCC (reporter) EC50, A498 target cells [6] [nM] | ADCC (reporter) EC50, SK-MES-1 target cells [6] [nM] | EC50 [7] [nM]
SCT-Da182 (antibody, V domains shown) VH: EVQLQQSGPELVKPGASMKISCKVSGFSFTGYTMNWVKQSHGKNLEWIGLINTYNGGTFYNQKFKAKATLTVDKSSSTAHMELLSLTSEDSAVYYCARSPGRYSMDYWGQGTSVTVSS VL: DIVLTQSPASLAVSLGQRATISCKASQSVDYNGYSYLNWYQQKPGQPPKLLIYPASNLESGIPARFSGSGSGTDFTLNIHPVEEEDAATYYCQQSKEDPYTFGGGTKLEIK | 4.09 | 0.0105 | 1.22 | 0.000283 | 232000 | 3.7 | 10.9 | 0.00101 | 92700 | 4.5 | 4.6 | 0.00882
SCT-Da192 (antibody, V domains shown) VH: EVQLQQSGPELVKPGASVKISCKTSGYTFTEYTMHWVKQSHGKSLEWIGVINPNNGGTTYNQKFKGKATLTVDKSSSTAYMELRSLTSEDSAVYYCARPHSLLRLRREFDYWGQGTTLTVSS VL: QIVLTQSPALMSASPGEKVTMTCSASSSVSYMYWYQQKPRSSPKPWIYLTSNLASGVPARFSGSGSGTSYSLTISSMEAEDAATYYCQQWSSNPLTFGAGTKLELK | 2.32 | 0.0109 | 1.64 | 0.000505 | 307000 | 2.62 | 23.8 | 0.00203 | 85100 | 1.1 | 0.9 | 0.0176
SCT-Da333 (antibody, V domains shown) VH: QVQLQQSGPELVRPGVSVKISCKGSGYTFTDYAVHWVKQSHAKSLEWIGVINTYSGNTYYNLHFKGKATMTVDKSSSTAYMELARLTSEDSAIYYCARRRGSHRDAYFDYWGQGTTLTVSS VL: DIVMTQSHKFMSTSVGDRVSITCRASQDVSTAVAWYQQKPGQSPKLLIYSASYRYTGVPDRFTVSGSGTDFTFTISSVQAEDLAVYYCQQHYSTPWTFGGGTKLEIK | 1.94 | 0.00833 | – | – | – | 3.29 | 380 | 0.0512 | 135000 | 23.3 | 32.8 | 3.05

Binders with a lower EC50 [1], results first:

EC50 [1] [nM] | EC50 [2] [nM] | Kd [3] [nM] | koff [3] [s⁻¹] | kon [3] [M⁻¹ s⁻¹] | EC50 [4] [nM] | Kd [5] [nM] | koff [5] [s⁻¹] | kon [5] [M⁻¹ s⁻¹] | ADCC (reporter) EC50, A498 target cells [6] [nM] | ADCC (reporter) EC50, SK-MES-1 target cells [6] [nM] | EC50 [7] [nM] | Binder
1.49 | 0.0076 | 0.503 | 0.000368 | 731000 | 1.6 | 6.41 | 0.00234 | 366000 | 3.6 | 4.2 | 0.0114 | SCT-Da148 (antibody, V domains shown) VH: EVQLQQSGAELVKPGASVKLSCTASGVNIKDTYIHWVKQRPEQGLEWIGRIDPANGNRKYDPKFQGKATITADSSSNTAYLQLSSLTSEDTAVYYCARDGYYAPGYWGQGTTLTVSS VL: DIVMTQSQKFMSTSVGDRVSVTCKASQNVGTDVAWYQQKPGQSPKLLIYSASYRFSGVPDRFTGSGSGTDFSLAISNVQSEDLAEYFCQQYNSYPYTFGGGAKLEIK
1.46 | 0.0226 | 0.398 | 0.000361 | 905000 | 1.43 | 2.75 | 0.0011 | 402000 | 2.4 | 2.4 | 0.0237 | SCT-Da250 (antibody, V domains shown) VH: QGQMQQSGAELVKPGASVRLSCKTSGFTFSSFYISWLKQKPGQSLEWIAWIYAGPGYTSYNQKFTGKAQLTVDTSSSTAYMQFSSLTTEDSAIYYCARHVGRQRGYFDVWGAGTTVTVSS VL: DIVMTQSHKFMSTSVGDRVSITCKASQDVSTAVAWYQQKPGQSPKLLIYSASYRYTGVPDHFTVSGSGTDFTFTISSVQAEDLAVYYCQQHYSTPWTFGGGTKLEIK
